# Measurements reported in paper PMC5358978 (2017).
# Target: human CRM1 (HsCRM1), wild type (human, UniProt O14980 1-1071)
# Test: direct titration, PKI WT set
# Sequence of human CRM1 (HsCRM1), wild type (O14980 whole entry): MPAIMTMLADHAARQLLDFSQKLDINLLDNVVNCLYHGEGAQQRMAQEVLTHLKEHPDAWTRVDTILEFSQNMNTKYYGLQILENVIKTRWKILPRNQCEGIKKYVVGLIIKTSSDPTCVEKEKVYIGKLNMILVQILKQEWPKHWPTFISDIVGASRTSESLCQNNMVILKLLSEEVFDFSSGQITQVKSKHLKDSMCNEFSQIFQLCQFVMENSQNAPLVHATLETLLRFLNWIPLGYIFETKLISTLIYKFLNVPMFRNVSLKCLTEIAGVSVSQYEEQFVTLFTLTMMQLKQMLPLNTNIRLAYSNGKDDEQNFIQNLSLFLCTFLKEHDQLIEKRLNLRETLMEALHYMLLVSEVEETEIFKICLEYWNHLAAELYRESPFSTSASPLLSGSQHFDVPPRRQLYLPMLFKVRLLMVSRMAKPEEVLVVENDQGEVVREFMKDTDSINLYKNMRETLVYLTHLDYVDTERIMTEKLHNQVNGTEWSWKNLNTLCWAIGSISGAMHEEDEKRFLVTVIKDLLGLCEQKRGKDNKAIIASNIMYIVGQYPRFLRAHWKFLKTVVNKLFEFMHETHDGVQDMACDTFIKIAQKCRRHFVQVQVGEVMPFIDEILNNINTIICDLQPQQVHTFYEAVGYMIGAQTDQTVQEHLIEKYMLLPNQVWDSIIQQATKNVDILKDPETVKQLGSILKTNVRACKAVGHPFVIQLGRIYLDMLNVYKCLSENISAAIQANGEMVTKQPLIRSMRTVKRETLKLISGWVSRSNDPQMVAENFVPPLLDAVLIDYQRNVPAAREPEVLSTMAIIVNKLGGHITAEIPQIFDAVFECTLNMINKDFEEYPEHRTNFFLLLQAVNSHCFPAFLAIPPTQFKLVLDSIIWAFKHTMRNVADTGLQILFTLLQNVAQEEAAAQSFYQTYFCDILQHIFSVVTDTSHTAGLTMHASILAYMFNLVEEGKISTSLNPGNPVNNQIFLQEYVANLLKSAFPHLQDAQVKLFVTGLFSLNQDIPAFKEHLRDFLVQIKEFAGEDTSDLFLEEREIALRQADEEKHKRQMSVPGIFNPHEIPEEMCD
binder,measurement,value
"NSNELALKLAGLDINKT (FITC label (FITC-PKI^NES)) [FITC-PKI NES (NES of Protein Kinase A Inhibitor, wild type)]",Kd,29 nM
